Paper PMC12400190, “Crystal structures of 40- and 71-substitution variants of hydroxynitrile lyase from rubber tree” (Acta Crystallographica Section D: Structural Biology, 2025)

Experiments:
Conditions in all cases: 5 mM BES pH 7.2, 7-8% (v/v) acetonitrile
HbHNL = biological target: T1, HbHNL (Hevea brasiliensis, UniProt P52704); test: spectrophotometric ester hydrolysis at […] nm, Michaelis-Menten fit; assay type: biochemical
T1 construct: gene HNL; full length 257 aa; variant structures 8sni (HNL40), 9clr (HNL71); dimer
T1 sequence (P52704 whole entry): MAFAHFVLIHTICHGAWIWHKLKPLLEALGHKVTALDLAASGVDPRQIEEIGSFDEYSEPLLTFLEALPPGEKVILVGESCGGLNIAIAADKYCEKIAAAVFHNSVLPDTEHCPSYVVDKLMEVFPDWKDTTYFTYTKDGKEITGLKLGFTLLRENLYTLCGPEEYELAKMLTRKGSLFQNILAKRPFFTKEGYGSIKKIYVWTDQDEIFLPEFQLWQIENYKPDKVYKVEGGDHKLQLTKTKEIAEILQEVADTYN

SABP2 = biological target: T2, SABP2 (Nicotiana tabacum, UniProt Q6RYA0); test: as above; assay type: biochemical
T2 construct: production of the assayed sample not described in the main text
T2 sequence (Q6RYA0 1-260): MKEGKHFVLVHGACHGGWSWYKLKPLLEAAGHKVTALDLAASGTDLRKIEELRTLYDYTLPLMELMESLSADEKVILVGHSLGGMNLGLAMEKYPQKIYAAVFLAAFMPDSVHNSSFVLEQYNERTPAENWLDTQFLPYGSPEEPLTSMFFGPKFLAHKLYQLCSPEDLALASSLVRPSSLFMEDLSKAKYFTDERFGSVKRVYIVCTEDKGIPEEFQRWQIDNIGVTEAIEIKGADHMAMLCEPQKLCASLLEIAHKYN

[1] = tested on: CC(=O)Oc1ccc([N+](=O)[O-])cc1; test: purified protein

CC(=O)Oc1ccc([N+](=O)[O-])cc1 [p-nitrophenyl acetate]
Km (HbHNL): 3000 ± 400 µM | Km (SABP2): 2200 ± 200 µM

HbHNL (Hevea brasiliensis; C81L/E79H/F210I/H103V/I12A/I209G/K236M/L121Y/L146M/L148F/L152F/N104A/T11G/T151K/V106F/V118L)
Km [1]: 600 ± 200 µM | kcat [1]: 0.00583 ± 0.000167 s⁻¹ | kcat/Km [1]: 10.7 M⁻¹ s⁻¹
